Molecular target: recombinant human VEGF (R&D Systems, 293-VE-010) (human) (UniProt P15692)
Assay: Octet HTX biosensor kinetics; antibody at 10 ug/mL in 1x kinetics buffer; recombinant human VEGF 200 nM to 3.125 nM

Chain of UniProt P15692 (P15692 other isoform, or with tags, fused parts or gaps limits assumed): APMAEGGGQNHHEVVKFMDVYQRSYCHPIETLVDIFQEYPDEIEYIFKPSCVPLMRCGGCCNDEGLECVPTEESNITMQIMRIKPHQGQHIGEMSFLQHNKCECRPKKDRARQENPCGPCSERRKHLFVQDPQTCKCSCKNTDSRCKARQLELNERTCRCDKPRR

- Kd: 0.229 nM
- koff: 7.77e-05 s⁻¹
- kon: 340000 M⁻¹ s⁻¹
Substance: mouse anti-human VEGF monoclonal antibody (anti-hVEGF MmAb; R&D Systems, MAB293-100)

— patent US20250136673A1
